Source: paper PMC11189558, “Mutations found in cancer patients compromise DNA binding of the winged helix protein STK19”

What was measured:
STK19 (31-254) [1] = target: T1, STK19 (31-254) (human, UniProt P49842 31-254); assay: EMSA; n = 4; 20 mM HEPES pH 7.4, 100 mM NaCl, 1 mM MgCl2, 1 mg/ml BSA, 2 mM DTT, 5% glycerol; 30 min on ice; native 5% PAGE in 1X TBE; details: protein: recombinant, tags: GST cleaved, GPLGS left at N-terminus
STK19 (31-254) [2] = target: T1, STK19 (31-254); assay: EMSA; n = 2; 20 mM HEPES pH 7.4, 100 mM NaCl, 1 mM MgCl2, 1 mg/ml BSA, 2 mM DTT, 5% glycerol; 30 min on ice; native 5% PAGE in 1X TBE; details: protein: recombinant; tags: GST cleaved; GPLGS left at N-terminus; label: 5' IRDye 700 on rU30; blunt

T1 sequence (P49842 31-254): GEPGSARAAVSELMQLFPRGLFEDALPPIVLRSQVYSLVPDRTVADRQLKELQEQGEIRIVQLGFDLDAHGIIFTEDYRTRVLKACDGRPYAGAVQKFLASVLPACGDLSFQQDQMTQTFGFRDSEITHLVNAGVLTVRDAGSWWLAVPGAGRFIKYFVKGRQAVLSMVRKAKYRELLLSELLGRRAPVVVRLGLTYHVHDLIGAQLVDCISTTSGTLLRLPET

B1: dsDNA 30-mer (dT-dA)30 (dsDNA)
DNA 1: TTTTTTTTTTTTTTTTTTTTTTTTTTTTTT
DNA 2: AAAAAAAAAAAAAAAAAAAAAAAAAAAAAA
Kd (STK19 (31-254) [1]; label: 5' IRDye 700 on dT30, blunt): 2.2 µM

TTTTTTTTTTTTTTTTTTTTTTTTTTTTTT (ssDNA) [ssDNA dT30]
Kd (STK19 (31-254) [1]; label: 5' IRDye 700): 14.1 µM

B2: dsRNA 30-mer (rU-rA)30 (dsRNA)
RNA 1: UUUUUUUUUUUUUUUUUUUUUUUUUUUUUU
RNA 2: B1 DNA 2
Kd (STK19 (31-254) [2]): 3.2 µM
